Here are results for three molecules from patent publication US20150191517A1.

Where no end group is shown, it is not given here. [ ]: non-standard residue; d: D form.

Common to all, as to experiment: cell-based or functional assay
In test [1] the target is Nav1.2 (rBIIa) (rat (printed only as rBIIa)) (UniProt P04775).
For test [2], the target named is human Nav1.7 alpha-subunit (human) (UniProt Q15858).
Test [3] concerns the target human Nav1.7 alpha-subunit (human), Q15858.
Test [4] deals with Nav1.2 (rBIIa) (rat (printed only as rBIIa)), P04775.
Chain of Nav1.2 (rBIIa) (rat (printed only as rBIIa)), P04775 (P04775 whole entry): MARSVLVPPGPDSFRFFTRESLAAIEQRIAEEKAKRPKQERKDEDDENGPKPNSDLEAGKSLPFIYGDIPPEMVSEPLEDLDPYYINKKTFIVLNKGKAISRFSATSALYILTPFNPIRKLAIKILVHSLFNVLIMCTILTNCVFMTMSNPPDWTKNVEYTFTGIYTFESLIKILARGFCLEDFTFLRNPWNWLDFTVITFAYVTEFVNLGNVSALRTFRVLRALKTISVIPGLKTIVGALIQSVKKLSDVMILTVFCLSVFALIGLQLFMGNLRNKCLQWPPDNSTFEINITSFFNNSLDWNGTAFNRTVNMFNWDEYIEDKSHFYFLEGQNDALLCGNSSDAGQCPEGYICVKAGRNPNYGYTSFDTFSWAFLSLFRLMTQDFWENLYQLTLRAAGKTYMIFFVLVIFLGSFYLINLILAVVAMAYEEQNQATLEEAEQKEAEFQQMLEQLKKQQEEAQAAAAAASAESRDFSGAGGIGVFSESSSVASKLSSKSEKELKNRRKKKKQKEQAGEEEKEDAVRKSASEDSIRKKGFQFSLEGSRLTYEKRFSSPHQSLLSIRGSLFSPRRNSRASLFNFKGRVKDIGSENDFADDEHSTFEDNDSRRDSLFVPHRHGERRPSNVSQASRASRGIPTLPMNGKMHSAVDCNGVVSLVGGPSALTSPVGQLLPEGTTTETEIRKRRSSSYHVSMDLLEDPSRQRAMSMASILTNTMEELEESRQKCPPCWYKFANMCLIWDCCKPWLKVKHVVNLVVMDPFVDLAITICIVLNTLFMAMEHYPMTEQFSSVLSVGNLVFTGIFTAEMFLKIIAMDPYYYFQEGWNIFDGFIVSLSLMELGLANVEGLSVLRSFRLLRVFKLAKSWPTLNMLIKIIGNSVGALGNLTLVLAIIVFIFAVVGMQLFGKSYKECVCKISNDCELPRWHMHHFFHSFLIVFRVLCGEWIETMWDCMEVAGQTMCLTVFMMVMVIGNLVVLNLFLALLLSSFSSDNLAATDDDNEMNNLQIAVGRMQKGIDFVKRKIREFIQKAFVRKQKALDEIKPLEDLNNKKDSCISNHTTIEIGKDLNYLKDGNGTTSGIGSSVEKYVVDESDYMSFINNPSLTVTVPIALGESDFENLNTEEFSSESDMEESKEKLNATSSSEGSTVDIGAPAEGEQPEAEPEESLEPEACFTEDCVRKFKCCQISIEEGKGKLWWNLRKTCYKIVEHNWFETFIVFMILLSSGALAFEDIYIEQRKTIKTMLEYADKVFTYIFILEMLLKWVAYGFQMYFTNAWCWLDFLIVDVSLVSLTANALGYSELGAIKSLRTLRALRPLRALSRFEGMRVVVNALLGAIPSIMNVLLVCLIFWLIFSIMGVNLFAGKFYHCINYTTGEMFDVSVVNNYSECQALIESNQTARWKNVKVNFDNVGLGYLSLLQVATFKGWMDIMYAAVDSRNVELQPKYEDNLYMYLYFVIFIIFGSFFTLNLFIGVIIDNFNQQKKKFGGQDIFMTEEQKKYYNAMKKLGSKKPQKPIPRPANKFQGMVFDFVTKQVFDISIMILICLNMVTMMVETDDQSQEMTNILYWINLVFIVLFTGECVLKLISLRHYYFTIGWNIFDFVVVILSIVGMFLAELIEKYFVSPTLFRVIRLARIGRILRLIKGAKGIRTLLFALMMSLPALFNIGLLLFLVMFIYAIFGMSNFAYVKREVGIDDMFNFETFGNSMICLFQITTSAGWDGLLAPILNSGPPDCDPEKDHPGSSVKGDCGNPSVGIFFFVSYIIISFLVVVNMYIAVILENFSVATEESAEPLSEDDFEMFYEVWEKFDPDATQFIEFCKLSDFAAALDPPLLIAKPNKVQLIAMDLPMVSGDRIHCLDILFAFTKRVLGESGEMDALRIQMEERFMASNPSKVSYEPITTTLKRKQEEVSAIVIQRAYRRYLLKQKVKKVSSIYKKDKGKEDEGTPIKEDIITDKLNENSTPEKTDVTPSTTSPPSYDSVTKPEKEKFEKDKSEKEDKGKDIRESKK

Chain of Nav1.2 (rBIIa) (rat (printed only as rBIIa)) (P04775 whole entry): as above
Chain of human Nav1.7 alpha-subunit (human) (Q15858 whole entry): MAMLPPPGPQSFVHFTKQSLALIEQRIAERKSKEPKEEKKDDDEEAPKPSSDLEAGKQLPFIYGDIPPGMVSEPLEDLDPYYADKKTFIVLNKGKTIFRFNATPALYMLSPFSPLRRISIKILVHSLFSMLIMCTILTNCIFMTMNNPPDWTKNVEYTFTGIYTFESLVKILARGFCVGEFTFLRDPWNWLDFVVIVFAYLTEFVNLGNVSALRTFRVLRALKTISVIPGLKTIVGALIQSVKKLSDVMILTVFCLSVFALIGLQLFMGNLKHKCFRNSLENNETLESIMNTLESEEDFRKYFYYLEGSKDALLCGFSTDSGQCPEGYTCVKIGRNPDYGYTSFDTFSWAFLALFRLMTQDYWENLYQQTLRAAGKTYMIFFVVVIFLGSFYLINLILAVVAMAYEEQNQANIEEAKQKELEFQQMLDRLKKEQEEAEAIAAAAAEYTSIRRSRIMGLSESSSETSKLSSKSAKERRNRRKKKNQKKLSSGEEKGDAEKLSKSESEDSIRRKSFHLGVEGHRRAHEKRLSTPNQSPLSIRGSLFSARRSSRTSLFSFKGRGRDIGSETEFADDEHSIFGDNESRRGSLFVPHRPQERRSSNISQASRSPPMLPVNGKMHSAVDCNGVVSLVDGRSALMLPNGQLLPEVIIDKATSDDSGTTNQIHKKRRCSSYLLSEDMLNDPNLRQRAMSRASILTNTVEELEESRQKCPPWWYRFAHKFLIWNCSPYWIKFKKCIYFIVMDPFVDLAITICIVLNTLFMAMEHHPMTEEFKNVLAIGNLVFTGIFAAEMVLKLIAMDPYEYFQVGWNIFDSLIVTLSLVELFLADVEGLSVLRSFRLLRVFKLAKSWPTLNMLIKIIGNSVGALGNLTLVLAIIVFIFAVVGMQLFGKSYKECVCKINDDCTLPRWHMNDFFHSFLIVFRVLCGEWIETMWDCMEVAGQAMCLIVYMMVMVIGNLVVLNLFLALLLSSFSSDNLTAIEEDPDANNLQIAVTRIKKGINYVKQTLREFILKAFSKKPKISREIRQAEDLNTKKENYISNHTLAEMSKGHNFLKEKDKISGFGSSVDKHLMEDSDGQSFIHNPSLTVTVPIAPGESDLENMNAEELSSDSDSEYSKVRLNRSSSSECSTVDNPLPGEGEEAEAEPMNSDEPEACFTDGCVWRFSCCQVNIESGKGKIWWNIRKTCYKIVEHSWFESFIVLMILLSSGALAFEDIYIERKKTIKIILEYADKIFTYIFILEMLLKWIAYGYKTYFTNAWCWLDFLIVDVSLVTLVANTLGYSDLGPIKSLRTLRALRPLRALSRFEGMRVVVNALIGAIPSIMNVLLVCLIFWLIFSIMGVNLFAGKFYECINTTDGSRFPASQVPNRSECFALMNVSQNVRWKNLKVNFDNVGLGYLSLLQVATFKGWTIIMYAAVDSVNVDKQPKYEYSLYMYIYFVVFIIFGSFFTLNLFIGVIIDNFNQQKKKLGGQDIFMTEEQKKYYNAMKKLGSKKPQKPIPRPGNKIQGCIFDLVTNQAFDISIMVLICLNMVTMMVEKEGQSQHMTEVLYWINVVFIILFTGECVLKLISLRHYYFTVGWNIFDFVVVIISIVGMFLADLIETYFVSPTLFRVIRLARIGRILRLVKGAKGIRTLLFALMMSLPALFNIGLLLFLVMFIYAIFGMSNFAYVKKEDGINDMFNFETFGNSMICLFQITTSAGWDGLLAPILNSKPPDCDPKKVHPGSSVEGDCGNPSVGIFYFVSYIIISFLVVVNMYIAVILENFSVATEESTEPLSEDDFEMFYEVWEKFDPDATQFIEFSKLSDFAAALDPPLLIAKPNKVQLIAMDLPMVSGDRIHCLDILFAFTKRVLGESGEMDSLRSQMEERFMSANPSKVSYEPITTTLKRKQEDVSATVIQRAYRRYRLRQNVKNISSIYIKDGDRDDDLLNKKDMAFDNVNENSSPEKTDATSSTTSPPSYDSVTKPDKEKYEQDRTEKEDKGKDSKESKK
Chain of human Nav1.7 alpha-subunit (human), Q15858 (Q15858 whole entry): as above

In test [1], Protoxin II (peptide) returned a Nav1.2 IC50 (nM), EP (electrophysiology) sodium channel blocking activity of 100 nM and a Nav1.2 IC50 (nM), FLIPR sodium channel blocking activity of 379 nM.

B1: Protoxin II-D-Trp (peptide)
peptide: YCQKWMWTCDSERKCCEGMVCRLWCKKKLWW
modifications: not fully specified; ends and bridges not checked
The molecule B1 displayed a Nav1.7 IC50 (nM), FLIPR sodium channel blocking activity in test [2] of 16.5 nM. The molecule also displayed a Nav1.2 IC50 (nM), FLIPR sodium channel blocking activity in test [1] of 102 nM.

B2: Protoxin II (D)-NHcyclohexyl (peptide)
peptide: YCQKWMWTCDSERKCCEGMVCRLWCKKKL[dW]-NHcyclohexyl
modifications: ends and bridges not checked
B2 yielded a Nav1.7 IC50 (nM), FLIPR sodium channel blocking activity in test [3] of 31 nM. This molecule also displayed a Nav1.2 IC50 (nM), FLIPR sodium channel blocking activity in test [4] of 336 nM.
